Data reported in the RNAGym collection of RNA variant scans (doi:10.1073/pnas.2313332121).
Fewer inactive variants are shown than the library holds.

B1: TPR 5TU (parent)
chain: GGAUCUUCUCGAUCUAACAAAAAAGACAAAUCUGCCACAAAGCUUGAGAGCAUCUUCGGAUGCAGAGGCGGCAGCCUUCGGUGGCGCGAUAGCGCCAACGUUCUCAACUAUGACACGCAAAACGCGUGCUCCGUUGAAUGGAGUUUAUCAUG

Variants of: B1
Experiment: polymerase ribozyme fitness, log enrichment relative to wild type (log ratio); higher = more active; in vitro selection for triplet polymerase activity
Summary of the method: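 Streptavidin-bead capture of gel-excised extended constructs, followed by RT-PCR, closed a single triplicate in vitro selection round. That round began by annealing PCR-built, transcribed mutant libraries of each subunit of a heterodimeric triplet polymerase ribozyme with a biotinylated primer, the partner subunit and triplets, then incubating them frozen at −7 °C. After Illumina sequencing of inputs and outputs, genotypes needed ≥10 input reads and ≥1 read per output. Fitness is the base-2 logarithm of genotype enrichment over wild-type enrichment, using inverse-variance-weighted replicate averages.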
In the case of GGAUCUUCUCGAUCUAACAAAAAAGACAAAUCUGCCACAAAGCUUGAGAGCAUCUUCGGAUGCAGAGGCGGCAGCCUUCGGUGGCACGAUAGCGCCAACGUUCUCAACUAUGACACGCAAAGCGCGUGCUCCGUUGAAUGGAGUUUAGCAUG [G86A A122G U148G], the “polymerase ribozyme fitness (log ratio)” value is reported as at most -4.2.
For GGAUCUUCUCGAUCUAACAAAAAAGACAAAUCUGCCACAAAGCUUGAGAGCAUCUUCGGAUGCAGAGGCGGCAGCCUUCGGUGGUGCGAUAGCGCCAACGUUCUCAACUAUGACACGCAAAACGCGUGCUCCGAUGAAUGGAGUUUAUCAUG [C85U U134A], the “polymerase ribozyme fitness (log ratio)” value was -3.04.
For GGAUCUUCUCGAUCUAACAAAAAAGACAAAUCUGCCACAAAGCUUGAGAGCAUCUUCGGAUGCAGAGGCGGCAGCCUUCGGUGGUGCGAUAGCGCCAACGUUCUCAACUAUGACACGCAAAACGCGUGCUCCGGUGAAUGGAGUUUAUCAUG [C85U U134G], the “polymerase ribozyme fitness (log ratio)” value was -2.89.
For GGAUCUUCUCGAUCUAACAAAAAAGACAAAUCUGCCACAAAGCUUGAGAGCAUCUUCGGAUGCAGAGGCGGCAGCCUUCGGUGGCACGUUAGCGCCAACGUUCUCAACUAUGACACGCAAAACGCGUGCUCCGUUGAAUGGAGUUUAUCAUG [G86A A89U], the “polymerase ribozyme fitness (log ratio)” value was -1.96.
In the case of GGAUCUUCUCGAUCUAACAAAAAAGACAAAUCUGCCACAAAGCUUGAGAGCAUCUUCGGAUGCAGAGGCGGCAGCCUUCGGUGGUGCGAUAGCGCCAACGUUCGCAACUAUGACACGCAAAACGCGUGCUCCGUUGAAUGGAGUUUAUCAUG [C85U U104G], the “polymerase ribozyme fitness (log ratio)” value is reported as -0.929.
In the case of GGAUCUUCUCGAUCUAACAAAAAAGACAAAUCUGCCACAAAGCUUGAGAGCAUCUUCGGAUGCAGAGGCGGCAGCCUUCGGUGGUGCGAUAGCGCCAACGUUCUCAACUAUGACACGCAAAACGCGUGCUCCGUUGAAUGGAGUAUAUCAUG [C85U U145A], the “polymerase ribozyme fitness (log ratio)” value is reported as -0.468.
For GGAUCUUCUCGAUCUAACAAAAAAGACAAAUCUGCCACAAAGCUUGAGAGCAUCUUCGGAUGCAGAGGCGGCAGCCUUCGGUGGUGCGAUAGCGCCAACGUUCUCAACUAUGACACGCAAAACGCGUGCUCCGUUGAAUGGAGUGUAUCAUG [C85U U145G], the “polymerase ribozyme fitness (log ratio)” value was -2.
With GGAUCUUCUCGAUCUAACAAAAAAGACAAAUCUGCCACAAAGCUUGAGAGCAUCUUCGGAUGCAGAGGCGGCAGCCUUCGGUGGUGCGAUAGCGCCAACGGUCUAAACGGUGACACGCAAAACGCGUGCUCCGUUGAAUGGAGUUUAUCAUG [C85U U101G C105A U109G A110G] the “polymerase ribozyme fitness (log ratio)” value was -4.19.
In the case of GGAUCUUCUCGAUCUAACAAAAAAGACAAAUCUGCCACAAAGCUUGAGAGCAUCUUCGGAUGCAGAGGCGGCAGCCUUCGGUGGCACGAUAGCGCCAACGUUCUCAACUUUGACACGCAAAACGCGUGCUCCGUUGAAUGGAGUUUAUCAUG [G86A A110U], the “polymerase ribozyme fitness (log ratio)” value is reported as at most -4.2.
For GGAUCUUCUCGAUCUAACAAAAAAGACAAAUCUGCCACAAAGCUUGAGAGCAUCUUCGGAUGCAGAGGCGGCAGCCUUCGGUGGUGCGAUAGCGCCAACGUUCUCAACUAUGACACGCAAAACGCGUGCUCCGUUGAAUGGAGUUUAUCAUU [C85U G152U], the “polymerase ribozyme fitness (log ratio)” value was -3.73.
With GGAUCUUCUCGAUCUAACAAAAAAGACAAAUCUGCCACAAAGCUUGAGAGCAUCUUCGGAUGCAGAGGCGGCAGCCUUCGGUGGCACGAUAGCGCCAACGUUCUCAACUAUGACACGCAAAACGCGUGCUCCGUUGAAUGGCGUUUAUCAUG [G86A A142C] the “polymerase ribozyme fitness (log ratio)” value was -2.27.
For GGAUCUUCUCGAUCUAACAAAAAAGACAAAUCUGCCACAAAGCUUGAGAGCAUCUUCGGAUGCAGAGGCGGCAGCCUUCGGUGGUGCGAUAGCGCCAACGUUCUCAACUAUGACACGCAAAACGCGCGCUCCGUUGAAUGGAGUUUAUCAUG [C85U U127C], the “polymerase ribozyme fitness (log ratio)” value was -2.51.
In the case of GGAUCUUCUCGAUCUAACAAAAAAGACAAAUCUGCCACAAAGCUUGAGAGCAUCUUCGGAUGCAGAGGCGGCAGCCUUCGGUGGUGCGAUAGCGCCAACGUUCUCAACUAUGACACGCAAAACGCGAGCUCCGUUGAAUGGAGUUUAUCAUG [C85U U127A], the “polymerase ribozyme fitness (log ratio)” value is reported as -3.36.
In the case of GGAUCUUCUCGAUCUAACAAAAAAGACAAAUCUGCCACAAAGCUUGAGAGCAUCUUCGGAUGCAGAGGCGGCAGCCUUCGGUGGUGCGAUAGCGCCAACGUUCUCAACUAUGACACGCAAAACGCGUGCUCCGUUGAAGGGAGUUUAUCAUG [C85U U139G], the “polymerase ribozyme fitness (log ratio)” value is reported as -0.28.
In the case of GGAUCUUCUCGAUCUAACAAAAAAGACAAAUCUGCCACAAAGCUUGAGAGCAUCUUCGGAUGCAGAGGCGGCAGCCUUCGGUGGUGCGAUAGCGCCAACGUUCUCAACUAUGACACGCAAAACGCGUGCUCCGUUGAACGGAGUUUAUCAUG [C85U U139C], the “polymerase ribozyme fitness (log ratio)” value is reported as -3.16.
In the case of GGAUCUUCUCGAUCUAACAAAAAAGACAAAUCUGCCACAAAGCUUGAGAGCAUCUUCGGAUGCAGAGGCGGCAGCCUUCGGUGGCACGAUAGCGCCAACGUUCUCAUCUAUGACACGCAAAACGCGUGCUCCGUUGAAUGGAGUUUAUCAUG [G86A A107U], the “polymerase ribozyme fitness (log ratio)” value is reported as -3.39.
For GGAUCUUCUCGAUCUAACAAAAAAGACAAAUCUGCCACAAAGCUUGAGAGCAUCUUCGGAUGCAGAGGCGGCAGCCUUCGGUGGCACGAUAGCGCCAACGUUCUCAACUGUGACACGCAAAACGCGUGCUCCGUUGAAUGGAGUAUAUGAUG [G86A A110G U145A C149G], the “polymerase ribozyme fitness (log ratio)” value was at most -4.2.
In the case of GGAUCUUCUCGAUCUAACAAAAAAGACAAAUCUGCCACAAAGCUUGAGAGCAUCUUCGGAUGCAGAGGCGGCAGCCUUCGGUGGUGCGAUAGCGCCAACGAUCUCAACUAUGACACGCAAAACGCGUGCUCCGUUGAAUGGAGUUUAUCAUG [C85U U101A], the “polymerase ribozyme fitness (log ratio)” value is reported as -0.791.
In the case of GGAUCUUCUCGAUCUAACAAAAAAGACAAAUCUGCCACAAAGCUUGAGAGCAUCUUCGGAUGCAGAGGCGGCAGCCUUCGGUGGUGCGAUAGCGCCAACGGUCUCAACUAUGACACGCAAAACGCGUGCUCCGUUGAAUGGAGUUUAUCAUG [C85U U101G], the “polymerase ribozyme fitness (log ratio)” value is reported as -1.15.
